Laboratory results as given in patent US20240239878A1 (SHANGHAI QILU PHARMACEUTICAL RESEARCH AND DEVELOPMENT CENTRE, published 2024).
Substitutions are numbered along the chain they refer to.

T1: Cynomolgus monkey DLL3 on HEK293 cells (HEK293-cyno DLL3) (Cynomolgus monkey, UniProt Q9NYJ7 27-618 (human entry))
T1 chain: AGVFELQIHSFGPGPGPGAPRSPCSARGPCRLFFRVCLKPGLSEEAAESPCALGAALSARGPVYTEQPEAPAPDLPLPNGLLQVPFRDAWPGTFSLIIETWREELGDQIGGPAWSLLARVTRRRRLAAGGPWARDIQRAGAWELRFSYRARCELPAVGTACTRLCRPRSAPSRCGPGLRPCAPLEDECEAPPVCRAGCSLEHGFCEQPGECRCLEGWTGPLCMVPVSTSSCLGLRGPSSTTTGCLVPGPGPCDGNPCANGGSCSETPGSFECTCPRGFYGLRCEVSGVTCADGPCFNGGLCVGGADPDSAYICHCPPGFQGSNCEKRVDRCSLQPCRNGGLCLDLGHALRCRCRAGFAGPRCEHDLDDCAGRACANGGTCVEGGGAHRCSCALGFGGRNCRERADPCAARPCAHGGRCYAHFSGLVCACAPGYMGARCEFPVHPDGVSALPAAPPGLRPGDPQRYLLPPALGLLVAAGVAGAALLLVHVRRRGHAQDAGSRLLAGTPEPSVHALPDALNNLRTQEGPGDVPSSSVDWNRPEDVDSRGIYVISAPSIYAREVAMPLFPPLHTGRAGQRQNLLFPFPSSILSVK

T2: human DLL1 (Sino Biological, Cat. No. 11635-H08H) (human, UniProt O00548 18-545)
T2 construct: also called family protein DLL1
T2 sequence: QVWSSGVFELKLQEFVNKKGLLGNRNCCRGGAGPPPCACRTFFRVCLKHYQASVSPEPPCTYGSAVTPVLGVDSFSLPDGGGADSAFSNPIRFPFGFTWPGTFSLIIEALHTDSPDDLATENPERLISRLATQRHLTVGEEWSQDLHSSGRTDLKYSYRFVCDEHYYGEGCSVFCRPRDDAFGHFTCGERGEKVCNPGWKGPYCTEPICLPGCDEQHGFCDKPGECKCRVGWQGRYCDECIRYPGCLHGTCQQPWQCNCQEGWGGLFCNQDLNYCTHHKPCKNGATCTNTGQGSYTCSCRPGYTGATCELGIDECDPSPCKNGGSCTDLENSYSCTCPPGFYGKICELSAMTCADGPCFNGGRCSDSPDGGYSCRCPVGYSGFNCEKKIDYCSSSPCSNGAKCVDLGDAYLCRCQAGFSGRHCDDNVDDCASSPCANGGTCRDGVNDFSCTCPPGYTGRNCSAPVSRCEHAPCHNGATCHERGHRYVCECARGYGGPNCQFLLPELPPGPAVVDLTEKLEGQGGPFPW

B1: hDLL3-3-1 camelid-derived humanized anti-DLL3 antibody (antibody, human IgG1, V domains shown)
VH: EVQLVESGGGLVQPGGSLRLSCAASTYTISSGYMGWFRQAPGKEREGVAAIYIGGSTTLYADSVKGRFTISRDNSKNTLYLQMNSLRAEDTAVYYCAAQLRPNSAYHPLDGRKYNYWGQGTLVTVSS
B2: hDLL3-3-2 camelid-derived humanized anti-DLL3 antibody (antibody, V domains shown)
VH: B1 VH with A23K, A24S, S25P
B3: DLL3-26 camelid-derived anti-DLL3 chimeric antibody (antibody, human IgG1, V domains shown)
VH: QVQLVESGGGSVQAGGSLRLSCAASGDIYSSSYVGWFRQAPGKEREGVAIIYTSGDSTYYANSVKGRFTISQDKAKKTLYLQMNSLKPEDTAMYYCAARFAIDNSNYWGQGTQVTVSS
B4: hDLL3-26 camelid-derived humanized anti-DLL3 antibody (antibody, V domains shown)
VH: EVQLVESGGGLVQPGGSLRLSCAASGDIYSSSYVGWFRQAPGKEREGVAIIYTSGDSTYYADSVKGRFTISRDNSKNTLYLQMNSLRAEDTAVYYCAARFAIDNSNYWGQGTLVTVSS
B5: DLL3-122 camelid-derived anti-DLL3 chimeric antibody (antibody, human IgG1, V domains shown)
VH: QVQLVESGGGSVQAGGSLRLSCTASGDTYRSYCMGWFRKAPGKEREGVADIVSDGSTSYADSVKGRFTISKDNAKNTLYLQMNSLKPEDTAMYYCAVDRGGSGGYCYTGRYDYWGQGTQVTVSS
B6: hDLL3-122 camelid-derived humanized anti-DLL3 antibody (antibody, V domains shown)
VH: EVQLVESGGGLVQPGGSLRLSCAASGDTYRSYCMGWFRQAPGKEREGVADIVSDGSTSYADSVKGRFTISRDNSKNTLYLQMNSLRAEDTAVYYCAVDRGGSGGYCYTGRYDYWGQGTLVTVSS
B7: DLL3-3 camelid-derived anti-DLL3 chimeric antibody (antibody, human IgG1, V domains shown)
VH: DVQLVESGGGSVQAGGSLKLSCKSPTYTISSGYMGWFRQAPGKEREGVAAIYIGGSTTLYADSVKGRFTISADNAEKTVYLQMNTLKPEDSAMYYCAAQLRPNSAYHPLDGRKYNYWGQGTQVTVSS

Target: T1, Cynomolgus monkey DLL3 on HEK293 cells …
Test: flow cytometry, HEK293-cyno DLL3 cells
Experimental: SHP-77 and HEK293-cyno DLL3 cells were cultured. The culture medium for SHP-77 cells were RPMI1640+10% FBS, and the culture medium for HEK293 cyno DLL3 cells were DMEM+10% FBS+200 μg/ml Hygromycin. The cells were cultured in a T75 cell culture flask at a 37° C. 5% CO₂ incubator. When using cells, they are washed with sterile DPBS, digested with 0.25% trypsin EDTA for about 5 minutes, and then stopped with a complete medium.
The digested cells were centrifuged at 1000 rpm for 5 min at room temperature. The supernatant was discarded and the cells were resuspended in 100 μL of 1% BSA (in PBS). The cells were counted and adjusted to a cell density of 1E6/m. The dilute cells were seeded in a 96-well round-bottom culture plate (corning 3799), and centrifuged at 1500 rpm for 5 min at 4° C. The supernatant was discarded and the cells were stored at 4° C. until use. Antibody samples to be tested were diluted with 1% BSA (in PBS) at a starting concentration of 100 nM, downwards by a 10-fold gradient for 7 concentrations. The cells were resuspended with the diluted antibody at 100 μL/well and incubated for 1 hour at 4° C. The cells were centrifuged at 1500 rpm for 5 minutes at 4° C. and the supernatant was discarded. The cells were resuspended and washed with 160 μL of 1% BSA (in PBS), centrifuged at 1500 rpm for 5 minutes at 4° C. The supernatant was discarded. The secondary antibody (goat anti human IgG Fc PE) was diluted 1:200 with 1% BSA (in PBS) according to the manufacturer's instructions and the cells were resuspended with the diluted secondary antibody, 100 μL/well, and incubated for 0.5 h at 4° C. The cells were centrifuged at 1500 rpm for 5 minutes at 4° C. and the supernatant was discarded. The cells were resuspended and washed with 160 μL of 1% BSA (in PBS), centrifuged at 1500 rpm for 5 minutes at 4° C. The supernatant was discarded. The cells were resuspended in 100 μL of 1% BSA (in PBS), and filtered across a 300 mesh gauze. The mean fluorescence intensity of the PE channels was measured by flow cytometry.
The analyzed mean fluorescence intensity was imported into Graphpad to analyze the median-binding concentration (hereinafter referred to as EC50) of antibody and cell and the top mean fluorescence intensity (Top MFI).

In order of falling EC50:
1. B4  2.24 nM
2. B6  0.99 nM
3. B5  0.58 nM
4. B3  0.54 nM
5. B1  0.22 nM
6. B2  0.15 nM
7. B7  0.08 nM

In order of falling “Top MFI” value:
1. B7  379 MFI
2. B5  351 MFI
3. B6  351 MFI
4. B1  346 MFI
5. B2  344 MFI
6. B3  336 MFI
7. B4  301 MFI

target: T2, human DLL1 (Sino Biological, Cat. No. …); test: ELISA, plate coated with human DLL1 at 1 ug/mL, OD 450nm
Experimental: The antigen was washed three times with PBST, 300 μL/well. The antigen was blocked with 1% BSA (in PBST), 200 μL/well, and incubated at 37° C. for 1.5 hours.
Antibodies to be tested were diluted with 1% BSA (in PBS) at a starting concentration of 100 nM, downwards by a 10-fold gradient for 7 concentrations. The plates were washed three times with PBST, 300 μL/well. The diluted antibody was added to an ELISA plate at 100 μL/well and incubated at room temperature for 2 hours. The antibodies were washed three times with PBST, 300 μL/well. The secondary antibodies (goat anti-human IgG Fc for DLL4 (HRP), 1:20000 dilution: HRP goat anti-mouse IgG (H+L) for DLL1, 1:10000 dilution) were diluted with 1% BSA in PBST. The diluted secondary antibodies were added to the ELISA plate at 100 μL/well and incubated at room temperature for 1 hour. The plates were washed 6 times with PBST, 300 μL/well. The developing solution (TMA and TMB 1:1 mixed) was prepared. The developing solution was added to the plate, 100 μL/well, and incubated in the dark for 5 min. 50 μL of ELISA stop solution was added to the plate and shaken well.
OD450s were read on the envision and plotted on the GraphPad for EC₅₀ values.

B1: no binding (tested: 100 nM).
B2: no binding (tested: 100 nM).
B4: no binding (tested: 100 nM).
B6: no binding (tested: 100 nM).
